{"source": "the domain aggregation screens of Martell et al. (2025)", "data": [{"assay": "soluble fraction after stress (log2 fold change); higher = more stays soluble; pooled small domains, quantitative proteomics", "details": "stress: 50 degC", "procedure,_shortened": "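After stress at 50°C, the amount of each protein still soluble was measured. This was done on pooled custom libraries of small protein domains, using high-throughput quantitative proteomics. The figure given is a base-two log fold change and stands for aggregation propensity, with higher values meaning more protein stays in solution.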", "values": [{"sequence": "HMLIGLNETESLVLDALIANPMRIDQVSAMLKKDVATTLKFLGGLSVRGLVETLFGGRFAPTKIALHARS", "soluble fraction (log2)": -0.276}, {"sequence": "HMKNLTERQQRIIALISENPQTTRAEIAGAIGVATKTIERELTTLSNIVYYVGPKKGGHWEIIK", "soluble fraction (log2)": -0.865}, {"sequence": "HMLPDGEAFVKVNTSLNIRTGPWGQIVGWFHNNDKVKIIGRDGDWYKISHNGQTRYIHSRYVSSSR", "soluble fraction (log2)": -0.913}, {"sequence": "HMQISDAGALLDAVRRVLAENPAQVEQFRAGKEKVMGFLVGQVMRATGGKANPQMLNDVLREELS", "soluble fraction (log2)": -0.0404}, {"sequence": "HMASANMPDVLGLDAETAKQVLAAKGFTKVEIYPMESSEPANRVVRQSEDRDTMVALTKEILLGVSNGS", "soluble fraction (log2)": 0.186}, {"sequence": "HMTYFDIAPELLTVYKEINDIPRDINQIVRKTGLSINEVSYKTMILQLEDKIVELPGQRFIRNS", "soluble fraction (log2)": -1.99}, {"sequence": "HMSFDGFSDRLKSVLNSGKYTQKEAAEKINISEYSFTKYLNGRIPQTEILYKIARLYNKSMEWLLTGKDPI", "soluble fraction (log2)": -2.01}, {"sequence": "HMEQNHYEVLGVSRDAIPEEIRKAYFEYARKLHPDANPDPGAAEQFMRIQTAYDVLSNPDRRHEYDGLLPP", "soluble fraction (log2)": -0.000773}, {"sequence": "HMLETLVYPNPTTDKILLSSPVDYHLFSLKGELVLEGRGSSIEVSQLSKGVYFLNTKTQTFKIIK", "soluble fraction (log2)": -0.383}, {"sequence": "HMSGMNSDHRVNGNIHTFLIQHDLGTKWSVFTEQLLKQVFRSFLPDKELNFQTTDSTVILKVSLGSDFNEH", "soluble fraction (log2)": -0.0505}, {"sequence": "HMNTSITVPSLKGLSQEAATLKMERLGLHVEVSDTGFVRSLAFGTVLQQSIAPGEKVKPGRLVYITINSD", "soluble fraction (log2)": -1.96}, {"sequence": "HMEYEETMSQIKHNLNLLPRQQRVIIEMAKFDELTPAEIAKQLGISVQTVRNQLSTGLKKLRQLL", "soluble fraction (log2)": -0.0252}, {"sequence": "HMLAEEAFNKQAATAGYVYRDGSYHPAASVAQYDAMPRNYRTNTMAQELSRSQVESQLQQSQ", "soluble fraction (log2)": 0.436}, {"sequence": "HMPTSLPGIDIDEKNIVSSTGALSFKKVPKKLAIIGGGYIGLEMGSVWSRLGSSVTVIEYLNFITPG", "soluble fraction (log2)": -0.00687}, {"sequence": "HMIPRGFSRYYILELLQKKPHTGKEIIDNAIKESGGRWNPSPGLIYPLLGRLLDENLIEETNDGKYK", "soluble fraction (log2)": -1.72}, {"sequence": "HMSTKEFTIHAGEWSYRVSQKLENLGLVSDAKKFDQYLEDNGYSSKIKIGHYTISKDADFEEIAKEIT", "soluble fraction (log2)": 0.0383}, {"sequence": "HMSIAKIIGDRIRAYRNQKGWSQEYLAEKADVHHTYIGQLERGEKNATIESISKIAGALGVSLSRLFEN", "soluble fraction (log2)": -0.0998}, {"sequence": "HMPGEATVPSVIGMTKAEAKAKLQASGFELGYSEFVASDKPKGEIVEQDPGAGETAKGGTEVNVKISDGS", "soluble fraction (log2)": -0.0145}, {"sequence": "HMVDPWLEQVHRASAAYATAHGSARIPTTHPDLGWKVVRVRQRHRKGLLSDEWVAKFEALPGWTWEPK", "soluble fraction (log2)": -0.282}, {"sequence": "HMIVNTTRAPYLLGETEQDAMRLARQAGLVPEIVRQSSAEPAGTVILQSHDFDYRMRRGSVILITVSTGPL", "soluble fraction (log2)": -2.15}, {"sequence": "HMLDEIAGQKVRVLEEINNSEGTGKVMYRGVEWMARSVDDAVMAKDSIVTVQSISGVKLMVT", "soluble fraction (log2)": -0.0685}, {"sequence": "HMEGIWAVFYDGKPINLKSSSLVANYPGPKYKKVSFSNPGHAENLAKKLNAQHNTDKFGVYLLKSGDKFS", "soluble fraction (log2)": -0.00158}, {"sequence": "HMVDALYGQGARVMRDFSEGSGIVKLDNGETWTGRLSPAASGASLYVGDRVIVTRIDGAIAEVTPP", "soluble fraction (log2)": -0.0539}, {"sequence": "HMDLLVWRVADEDAGERIDKLVVDSLDDVSRTAVQQWIKDGLVTVNGKTVKPNYKAAAGDEVAVSVPEPE", "soluble fraction (log2)": 0.149}, {"sequence": "HMDSLELADEVGRVSEALQELRPHQREVLELSLVHGRSHQQISEKTGLALGTVKSHARRGLMRVREMLGV", "soluble fraction (log2)": -0.445}, {"sequence": "HMNLYHALDQQGEVYLTIPPRQSGRGKVTLMIDGRVREMDAMTDGDALKTGSKVRVTEILDENALKVEAM", "soluble fraction (log2)": 0.207}, {"sequence": "HMSRLLTTRQREVFEVATREGFWDVPRRINLSELAKVLGVAKSTLSSQLQRIESAVFHAFTDEIRRQS", "soluble fraction (log2)": -2.16}, {"sequence": "HMYLPLREVVFNALRTAIIHGEFKPGERLMEMHLAKSLGVSRTPVREAMRMLELEGLVVMIPKKGAEVAR", "soluble fraction (log2)": -3.13}, {"sequence": "HMHPVTGRIGTVTAANGLNLRADSSEYANVVATLGYGVDVTVTGERINGFYPVRVGTLSGYVSADYVSFNS", "soluble fraction (log2)": -0.238}, {"sequence": "HMHKREKSFFETIYDDIPGIGKKRRVQLLSAYPTLDSLKSVTLEELKQIVPEESAKLILEKRDSR", "soluble fraction (log2)": 0.0407}, {"sequence": "HMARDPWDVLGVAKTATNDEIKRAFKRQAMMTHPDKQGGSEERFKEVNEAYSHIKDEQSRAKYQNSQ", "soluble fraction (log2)": 0.238}, {"sequence": "HMNLNESVELGQELLSQALAQLGIRGELSPSTIDKLLAESSAKSMEELYADIGIGKRMPALVARHIFGLMD", "soluble fraction (log2)": -0.43}, {"sequence": "HMEMDPKELGRQVLAKRKEKGWSQEQLGKMAEISRNYVSQIERGEADSISIKIINRLAIALGVSPSDLGE", "soluble fraction (log2)": 0.0486}, {"sequence": "HMFTGELESRVFELNYVDGLVASAALAGVLTDKGSATPIASRAGGENDMLLVVDRIASYSQIEKIITQLD", "soluble fraction (log2)": -0.0977}, {"sequence": "HMSDLQTGDINQDGTVDEKDLSLLHSYNLELIKTISNAADLNEDGVINGLDEAYLKRLFLQNSDP", "soluble fraction (log2)": -0.0614}, {"sequence": "HMTARYQQVEDYIVRRIQDGSWPPGHRLPSEHELVQQFGMSRMTVNRALRDLMQKGRIVRVAGVGSFVAQD", "soluble fraction (log2)": -1.41}, {"sequence": "HMHSIFPVIRSTSFPTKSNDGELFITSDHTAETRIYYALDLGNTYRLIDQKVMNEINLTESLVKETARF", "soluble fraction (log2)": -1.9}, {"sequence": "HMSDESRAEIVSSAKRLFQQYGYKKTTVSDIAKAMGKVKSAIYYYFPDKESLLRAVIDEEVG", "soluble fraction (log2)": -0.0483}, {"sequence": "HMEIHQVEFGGKVISFVLERKPVKNVNLHIKPDMTVMVSANEKVPLDFILGFVKQKAAWILKNIQFFEDV", "soluble fraction (log2)": -1.25}, {"sequence": "HMRDGHEQLQGVLSAIKFHQANFLIGVLDDGTTVKGNMLSPQVGLEYTFRGRRERHPRWGEQFAFMDYRV", "soluble fraction (log2)": -2.76}, {"sequence": "HMTVVHRQVHLQPDQGAFRAALYSHKAVLSEQTDDQGAINLEIRLPESDFLRLLNSSGLKLQDLVP", "soluble fraction (log2)": -0.0198}, {"sequence": "HMTPPAQQPHEGLPTDETATDAKTLVQKSRWWLEEEQRQREAGNTAYAERIRLALIQLLYRAERA", "soluble fraction (log2)": 0.0784}, {"sequence": "HMGEILYSGVLKGGDGPEATKLALEKFLGEANTQVAGRIGVQPETQVIWLSREAVDSAASTLSQHKGNMYV", "soluble fraction (log2)": -0.085}, {"sequence": "HMGDLVKGKVVGYDPDNVIVDIGAKTNALVPNREAVVEAGDDIKETLKKGNEYEFLIIRDEDEEGEFL", "soluble fraction (log2)": 0.29}, {"sequence": "HMKNLTEVEYSEFLESIAQDRVSKVQVDGLIIRGEMNDGQRFETVQPQVTDKALIDDMVNHRVDFSGARP", "soluble fraction (log2)": 0.0951}, {"sequence": "HMPVGSIGERLKALRLKAGLTQEEVGQHVHISKQTLYKYENGIVTNIPADKIELLATIYSVTPAYIMGWA", "soluble fraction (log2)": -0.875}, {"sequence": "HMVDPAEASKRAREYLDALPADDLKDVIRQFSATLAEGSVVLGYFQRSGLKSKVVKTALEQFVASTILSK", "soluble fraction (log2)": -0.167}, {"sequence": "HMDPEARRRAILNAAIDVIVEKGAAALTHRAVAARAGVSLGSTTKYFSSIEDLRENAMDALVREMD", "soluble fraction (log2)": -0.273}, {"sequence": "HMRPEKLVLKALRGAHGPLSAEEVAGRIEADGGAGLDVARVEHVLGQLERSGTVAALGGGKYLALR", "soluble fraction (log2)": 0.281}, {"sequence": "HMKLFGTPGSPFARKVRIVLEEKRIPHEYIIERGSAPGSRVPQYNPLGKVPTLVLDDGRGLYDSPVIVEYL", "soluble fraction (log2)": -0.492}]}]}
